The values that follow come from patent publication US7977313B2, “Methods and compositions for promoting localization of pharmaceutically active agents to bone” (Affinergy, Inc., priority 2007, dated 2011).

The target of one assay is T1, BMP2 (Homo sapiens, UniProt P12643).
T1 sequence (P12643 283-396): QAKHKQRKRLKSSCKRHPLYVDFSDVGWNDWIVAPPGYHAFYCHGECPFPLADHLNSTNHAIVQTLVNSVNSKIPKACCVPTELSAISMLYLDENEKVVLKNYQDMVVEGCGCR
In words: ELISA-format binding to BMP family members. The conditions noted are these: ELISA-format assay. The procedure: (§1) Exemplary peptides were tested for their ability to bind with specificity to members of the BMP family in an ELISA-format assay. […] For example, BMP2-mediates transdifferentiation of C2C12 myoblasts into osteoblasts; and when treated with BMP-2, the alkaline phosphatase activity in C2C12 myoblasts was induced.
Background: ELISA stands for enzyme-linked immunosorbent assay.

The target of a further assay is T2, BMP7 (Homo sapiens, UniProt P18075).
T2 sequence (P18075 293-431): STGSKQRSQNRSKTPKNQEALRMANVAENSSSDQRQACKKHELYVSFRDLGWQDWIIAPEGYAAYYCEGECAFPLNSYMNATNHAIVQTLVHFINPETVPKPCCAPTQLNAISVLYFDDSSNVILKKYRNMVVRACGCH
In words: ELISA-format binding to BMP family members. The conditions noted are these: ELISA-format assay. Here is the method: as §1

For the next assay, the target named is T3, BMP4 (Homo sapiens, UniProt P12644).
T3 sequence (P12644 293-408): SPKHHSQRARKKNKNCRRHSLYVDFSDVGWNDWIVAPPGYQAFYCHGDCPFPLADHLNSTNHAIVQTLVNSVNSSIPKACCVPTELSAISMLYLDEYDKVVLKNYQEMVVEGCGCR
In words: ELISA-format binding to BMP family members. The conditions noted are these: ELISA-format assay. Here is the method:
as §1

Another assay has as its target T4, BMP14 (Homo sapiens, UniProt P43026).
T4 sequence (P43026 382-501): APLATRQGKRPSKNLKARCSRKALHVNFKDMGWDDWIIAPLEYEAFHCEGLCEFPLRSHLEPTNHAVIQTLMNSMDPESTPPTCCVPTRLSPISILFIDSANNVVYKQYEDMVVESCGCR
In words: ELISA-format binding to BMP family members. The conditions noted are these: ELISA-format assay. Here is the method:
as §1

The next assay concerns the target T5, BMP5 (Homo sapiens, UniProt P22003).
T5 sequence (P22003 317-454): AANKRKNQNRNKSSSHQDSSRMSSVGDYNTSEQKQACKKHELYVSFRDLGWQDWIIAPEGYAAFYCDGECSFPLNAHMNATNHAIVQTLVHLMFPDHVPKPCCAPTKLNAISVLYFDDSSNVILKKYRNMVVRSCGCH
Briefly: ELISA-format binding to BMP family members. The conditions noted are these: ELISA-format assay. Here is the method:
as §1

For a further assay, the system named is stem cells. The conditions noted are these: cited from earlier work.
Assay [1] concerns human adipose-derived stem cells. Briefly: Binding to adipose-derived stem cells. The source says:
In another embodiment, the pharmaceutically active agent comprises a cell. Thus, a coating composition embodiment includes at least one peptide having binding specificity to bone coupled to at least one peptide having binding specificity for cells. Such coating composition may further include cells bound to the at least one peptide having binding specificity for the cells. For example, RGDX peptides wherein X is any amino acid (SEQ ID NO:119) have been described as binding stem cells, mesenchymal stem cells, and osteoblasts.

The conditions of assay [2]: phage display; cited from earlier work.
In another assay the target is human growth hormone (Homo sapiens, UniProt P01241). The conditions noted are these: cited from earlier work.
Chain of human growth hormone (P01241 27-217): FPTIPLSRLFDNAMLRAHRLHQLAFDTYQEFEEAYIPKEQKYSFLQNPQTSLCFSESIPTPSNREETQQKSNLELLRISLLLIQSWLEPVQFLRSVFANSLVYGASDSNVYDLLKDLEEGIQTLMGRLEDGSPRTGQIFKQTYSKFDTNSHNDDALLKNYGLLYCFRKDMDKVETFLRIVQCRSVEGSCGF
The target in a further assay is cancellous bone (CNB). Briefly: Biotinylated peptide binding to cancellous bone. Here is the method: (§2) Relative binding strengths of the peptides to bone, also used as a measure of binding specificity, were determined by testing serial dilutions of the peptide for binding to bone, as represented by DBM. Plotting the absorbance observed across the concentration range for each peptide sequence yielded a binding curve of the peptides to its target substrate from which can be determined an EC50. The goal of the screenings and selections was to identify one or more peptides that bind to the selected substrate with binding specificity, with an EC50 of less than or equal to about 10 μM, and for some embodiments, in the nanomolar range (<1 μM). […] As a specific example, DBM was placed in a microtiter plate at a concentration of 3 mg equivalents per well, and then the wells were blocked with buffer containing 1% BSA for 1 hour at room temperature. The buffer containing 1% BSA was then aspirated from each well, and added to the wells were the serial dilutions of biotinylated peptide. The microtiter plates were incubated for 1 hour at room temperature on a plate shaker. The DBM was then allowed to settle, and the buffer was then aspirated from the wells. The DBM was washed three times with buffer-T, and then streptavidin-alkaline phosphatase was added. The microtiter plates were incubated for 1 hour at room temperature on a plate shaker. The DBM was then allowed to settle, and the buffer was then aspirated from the wells. The DBM was washed three times with buffer-T, pNPP (p-nitrophenyl phosphate) was used to develop the assay, and the absorbance was recorded at 405 nm. An estimate of the relative affinity (binding specificity, EC50) of a peptide for bone can be made by determining the concentration of peptide that gives one-half the maximal signal in the assay. Using the methodology illustrated in Example 1, the peptides illustrated in Table 3 were also tested for relative binding strength to demineralized cortical bone, and to cancellous bone, additional evidence of binding specificity for bone.

Assay [3] concerns the target demineralized bone matrix (DBM). Briefly: Biotinylated peptide binding to demineralized bone matrix (ELISA-type, streptavidin-alkaline phosphatase/pNPP). Details: species or system human. The procedure: Relative binding strengths of the peptides to bone, also used as a measure of binding specificity, were determined by testing serial dilutions of the peptide for binding to bone, as represented by DBM. Plotting the absorbance observed across the concentration range for each peptide sequence yielded a binding curve of the peptides to its target substrate from which can be determined an EC50. The goal of the screenings and selections was to identify one or more peptides that bind to the selected substrate with binding specificity, with an EC50 of less than or equal to about 10 μM, and for some embodiments, in the nanomolar range (<1 μM).
As a specific example, DBM was placed in a microtiter plate at a concentration of 3 mg equivalents per well, and then the wells were blocked with buffer containing 1% BSA for 1 hour at room temperature. The buffer containing 1% BSA was then aspirated from each well, and added to the wells were the serial dilutions of biotinylated peptide. The microtiter plates were incubated for 1 hour at room temperature on a plate shaker. The DBM was then allowed to settle, and the buffer was then aspirated from the wells. The DBM was washed three times with buffer-T, and then streptavidin-alkaline phosphatase was added. The microtiter plates were incubated for 1 hour at room temperature on a plate shaker. The DBM was then allowed to settle, and the buffer was then aspirated from the wells. The DBM was washed three times with buffer-T, pNPP (p-nitrophenyl phosphate) was used to develop the assay, and the absorbance was recorded at 405 nm. An estimate of the relative affinity (binding specificity, EC50) of a peptide for bone can be made by determining the concentration of peptide that gives one-half the maximal signal in the assay.
Example 1 illustrates methods to determine the relative binding strengths of peptide to bone. […] A biotin molecule was linked to the C-terminal lysine. Also shown in Table 3 are the relative binding strengths expressed as EC50 (μM) to bone as represented by DBM of human origin. It is noted that the EC50 values were the same or substantially similar when DBM of rabbit origin was used.
Relative binding strength embodiments of the compositions to bone, also used as a measure of binding specificity, were determined by testing serial dilutions of the composition for binding to bone, as described in Example 1 Section B. Plotting the absorbance observed across the concentration range for each composition yielded a binding curve and rough dissociation constant of the composition for bone. Similar to a peptide having binding specificity for bone from which the composition is made, one property of the composition embodiments is that they bind to bone with binding specificity as measured by an EC50 of less than or equal to about 10 μM, and for some embodiments, in the nanomolar range (<1 μM). Using the methods outlined in Example 1B herein, assayed were the relative binding strengths of […] illustrative composition embodiments which include the amino acid sequences shown in SEQ ID NOs: 137, 138, 139, 140, 141 & 142, see Table 7, and synthesized to include a C-terminal amino linker which was biotinylated to facilitate determination of the relative binding strengths to bone. Shown in Table 8 are the relative binding strengths of composition embodiments to bone, as represented by DBM, expressed as EC50 (in μM).

The target in assay [4] is demineralized cortical bone (DCB). In words: Biotinylated peptide binding to demineralized cortical bone. The procedure: as §2
Setting [5] is: DBM of human origin, biotinylated peptide, read-out: Binding specificity for bone (e.g., DBM) EC50.
Where [6] appears, read: demineralized bone matrix, read-out: EC50 (μM) for DBM.

Where two headings read alike, the source gives them in different places. Where a SMILES comes first, the peptide text is derived from it. The star is where a group is joined. Biotin = O=C1N[C@H]2[C@H](CS[C@H]2CCCCC(=O)*)N1 Some results are limits rather than exact numbers.

In the case of “58 (SSWEVFSSLESGSVGAGAGSR) [compound 58]”, the “Binding specificity for BMP2” value with BMP2 is listed as “showed binding specificity”. Moreover, the “Binding specificity for BMP7” value with BMP7 is reported as “showed binding specificity”. Besides, in the assay with BMP4, the “Binding specificity for BMP4” value is “showed binding specificity”. In the assay with BMP14, the “Binding specificity for BMP14” value was “showed binding specificity”.

Consider 91 (GGGAWEAFSSLSGSRV) [compound 91], for which, in the assay with BMP2, the “Binding specificity for BMP2” value is on record as “displayed binding specificity”. Besides, in the assay with BMP7, the “Binding specificity for BMP7” value is reported as “displayed binding specificity”. Besides, in the assay with BMP5, the “Binding specificity for BMP5” value is “displayed binding specificity”. Besides, the “Binding specificity for BMP4” value with BMP4 is “displayed binding specificity”. Moreover, the “Binding specificity for BMP14” value in the assay with BMP14 is on record as “displayed binding specificity”.

On to 93 (SSSVDLYFPLKGDVVSR) [compound 93], for which, in the assay with BMP2, the “Binding specificity for BMP2” value is “showed binding specificity”. Further, the “Binding specificity for BMP7” value in the assay with BMP7 is given as “showed binding specificity”. In addition, the “Binding specificity for BMP4” value in the assay with BMP4 was “showed binding specificity”. The “Binding specificity for BMP14” value with BMP14 is “showed binding specificity”.

In the case of 118 (GGALGFPLKGEVVEGWA) [compound 118], the “Binding specificity for BMP2” value in the assay with BMP2 is reported as “showed binding specificity”. For the same molecule, the “Binding specificity for BMP7” value with BMP7 is reported as “showed binding specificity”. Besides, in the assay with BMP4, the “Binding specificity for BMP4” value is “showed binding specificity”. In addition, the “Binding specificity for BMP14” value with BMP14 is “showed binding specificity”.

For the molecule 120 (ALPSTSSQMPQL) [compound 120], the “Binding to stem cells” value in the assay with stem cells is recorded as “binding to stem cells”.

For the molecule “121 (SSSCQHVSLLRPSAALGPDNCSR) [compound 121]”, in [1], the “Binding specificity for human adipose-derived stem cells” value was “has binding specificity”.

Take 123 (HTPHPDASIQGV) [compound 123]: the Binding to paclitaxel result in [2] is “bind to paclitaxel”.

Regarding 124 (VMNV) [compound 124], the “Binding to human growth hormone” value in the assay with human growth hormone is on record as “found to bind to human growth hormone”.

One may read the EC50 as the midpoint of the concentration-response curve. On to `CC(C)C[C@H](NC(=O)[C@@H](N)CO)C(=O)NCC(=O)N[C@H](C(=O)N[C@@H](Cc1ccccc1)C(=O)N[C@@H](Cc1c[nH]c2ccccc12)C(=O)N[C@@H](CO)C(=O)N[C@@H](CO)C(=O)N[C@H](C(=O)N[C@@H](Cc1c[nH]c2ccccc12)C(=O)N[C@@H](CCCNC(=N)N)C(=O)NCC(=O)N[C@H](C(=O)N[C@@H](CC(=O)O)C(=O)N[C@@H](C)C(=O)NCC(=O)NCC(=O)N[C@@H](CCC(=O)O)C(=O)N[C@@H](CO)C(=O)N[C@@H](CCCNC(=N)N)C(=O)NCC(=O)N[C@@H](CO)C(=O)N[C@@H](CO)C(=O)NCC(=O)N[C@@H](CCCCNC(=O)CCCC[C@@H]1SC[C@@H]2NC(=O)N[C@@H]21)C(=O)O)C(C)C)C(C)C)[C@@H](C)O` [compound 43] (H-SLGTFWSSVWRGVDAGGESRGSSGK(Biotin)-OH), for which the EC50 at cancellous bone (CNB) is at most 1 µM; in assay [3] (setting [5]), below 1 µM; in assay [3] (setting [6]) it was below 1 µM; in assay [4] it was below 1 µM.

For the molecule `CC[C@H](C)[C@H](NC(=O)[C@H](CC(=O)O)NC(=O)[C@H](Cc1ccccc1)NC(=O)[C@@H](N)CO)C(=O)N[C@@H](CC(=O)O)C(=O)N[C@@H](Cc1c[nH]c2ccccc12)C(=O)N[C@@H](CO)C(=O)NCC(=O)N[C@@H](CCSC)C(=O)N[C@@H](CCCNC(=N)N)C(=O)N[C@@H](CO)C(=O)N[C@@H](Cc1c[nH]c2ccccc12)C(=O)N[C@@H](Cc1c[nH]c2ccccc12)C(=O)NCC(=O)N[C@@H](CO)C(=O)N[C@@H](CCCNC(=N)N)C(=O)NCC(=O)N[C@@H](CO)C(=O)N[C@@H](CO)C(=O)NCC(=O)N[C@@H](CCCCNC(=O)CCCC[C@@H]1SC[C@@H]2NC(=O)N[C@@H]21)C(=O)O` [compound 44] (H-SFDIDWSGMRSWWGSRGSSGK(Biotin)-OH), the EC50 (on cancellous bone (CNB); in [3] (setting [5]); in [3] (setting [6]); in assay [4]) was below 1 µM in each case.

Take `CC(C)C[C@H](NC(=O)[C@H](CO)NC(=O)[C@H](CCCNC(=N)N)NC(=O)[C@H](Cc1ccccc1)NC(=O)[C@H](CC(=O)O)NC(=O)[C@H](Cc1c[nH]c2ccccc12)NC(=O)[C@@H](N)CO)C(=O)N[C@@H](CCCNC(=N)N)C(=O)N[C@@H](CC(=O)O)C(=O)N[C@@H](Cc1c[nH]c2ccccc12)C(=O)N[C@@H](Cc1c[nH]c2ccccc12)C(=O)N1CCC[C@H]1C(=O)N1CCC[C@H]1C(=O)N[C@@H](C)C(=O)N1CCC[C@H]1C(=O)N[C@@H](CO)C(=O)N[C@@H](CC(C)C)C(=O)N[C@@H](CO)C(=O)N[C@@H](CO)C(=O)N[C@@H](CCCNC(=N)N)C(=O)NCC(=O)N[C@@H](CO)C(=O)N[C@@H](CO)C(=O)NCC(=O)N[C@@H](CCCCNC(=O)CCCC[C@@H]1SC[C@@H]2NC(=O)N[C@@H]21)C(=O)O` [compound 45] (H-SWDFRSLRDWWPPAPSLSSRGSSGK(Biotin)-OH): the EC50 (on cancellous bone (CNB); in assay [3] (setting [5]); in [3] (setting [6]); in [4]) was below 1 µM throughout.
